The chains are these.
B1: Serine endoprotease DegS (Escherichia coli (strain K12)), P0AEE3 (parent)
chain: MFVKLLRSVAIGLIVGAILLVAMPSLRSLNPLSTPQFDSTDETPASYNLAVRRAAPAVVNVYNRGLNTNSHNQLEIRTLGSGVIMDQRGYIITNKHVINDADQIIVALQDGRVFEALLVGSDSLTDLAVLKINATGGLPTIPINARRVPHIGDVVLAIGNPYNLGQTITQGIISATGRIGLNPTGRQNFLQTDASINHGNSGGALVNSLGELMGINTLSFDKSNDGETPEGIGFAIPFQLATKIMDKLIRDGRVIRGYIGIGGREIAPLHAQGGGIDQLQGIVVNEVSPDGPAANAGIQVNDLIISVDNKPAISALETMDQVAEIRPGSVIPVVVMRDDKQLTLQVTIQEYPATN
partner: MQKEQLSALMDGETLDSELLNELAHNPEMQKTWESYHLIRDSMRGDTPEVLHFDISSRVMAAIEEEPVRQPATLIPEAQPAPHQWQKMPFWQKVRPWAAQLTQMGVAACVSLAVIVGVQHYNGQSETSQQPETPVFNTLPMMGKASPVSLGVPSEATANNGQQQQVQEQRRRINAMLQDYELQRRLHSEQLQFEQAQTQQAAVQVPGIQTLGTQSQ

Nine variants from IntAct's records for PubMed 17981123 can be followed below.

This assay covers variants of B1. The note with it: with rsea_ecoli rseA.
In the case of R178A, the “effect of a mutation on the interaction” value is reported as “decreasing interaction”. With Y162F, the “effect of a mutation on the interaction” value was “decreasing interaction”. As for Y162A, the entry is “disrupting interaction”; as for D320A, “increasing interaction”. Take R256A: the “effect of a mutation on the interaction” value is listed as “increasing interaction”.

For R256D, the “effect of a mutation on the interaction” value is given as “decreasing interaction”. For E227A, the “effect of a mutation on the interaction” value is “increasing interaction”.

D122A: the “effect of a mutation on the interaction” value is on record as “decreasing interaction”.

With K243D, the “effect of a mutation on the interaction” value is “increasing interaction”.
